# Where a chain is given by its changes, count along the chain named. Numbers in names are those of the source.
# T1: PTP HSCF (Mus musculus, UniProt Q61152)
# T1 construct: the PST (and C-terminal homolog) of PTP HSCF (amino acids 304-453); made in house; host or cells: E. coli DH5-alpha
# T1 sequence (Q61152 304-453): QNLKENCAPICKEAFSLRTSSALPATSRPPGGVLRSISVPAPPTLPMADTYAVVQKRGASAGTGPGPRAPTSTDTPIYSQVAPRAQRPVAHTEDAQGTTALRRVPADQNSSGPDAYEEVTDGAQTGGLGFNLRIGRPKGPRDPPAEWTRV
# B1: tryptophan at position 205: PST PIP with tryptophan 205 mutated to alanine (protein)
# chain: MMAQLQFRDAFWCRDFTAHTGYEVLLQRLLDGRKMCKDVEELLRQRAQAEERYGKELVQIARKAGGQTEMNSLRTSFDSLKQQTENVGSAHIQLALALREELRSLEEFRERQKEQRKKYEAIMDRVQKSKLSLYKKTMESKKAYDQKCRDADDAEQAFERVSANGHQKQVEKSQNKAKQCKESATEAERVYRQNIEQLERARTEAEQEHRTTCEAFQLQEFDRLTILRNALWVHCNQLSMQCVKDDELYEEVRLTLEGCDVEGDINGFIQSKSTGREPPAPVPYQNYYDREVTPLIGSPSIQPSCGVIKRFSGLLHGSPKTTPSAPAASTETLTPTPERNELVYASIEVQATQGNLNSSAQDYRALYDYTAQNSDELDISAGDILAVILEGEDGWWTVERNGQRGFVPGSYLEKL
# modifications: Mus Musculus
# notes: PST PIP with tryptophan 205 mutated to alanine
# B2: I122MD: PST PIP clustered alanine substitution starting at I122 (protein)
# chain: MMAQLQFRDAFWCRDFTAHTGYEVLLQRLLDGRKMCKDVEELLRQRAQAEERYGKELVQIARKAGGQTEMNSLRTSFDSLKQQTENVGSAHIQLALALREELRSLEEFRERQKEQRKKYEAAAARVQKSKLSLYKKTMESKKAYDQKCRDADDAEQAFERVSANGHQKQVEKSQNKAKQCKESATEAERVYRQNIEQLERARTEWEQEHRTTCEAFQLQEFDRLTILRNALWVHCNQLSMQCVKDDELYEEVRLTLEGCDVEGDINGFIQSKSTGREPPAPVPYQNYYDREVTPLIGSPSIQPSCGVIKRFSGLLHGSPKTTPSAPAASTETLTPTPERNELVYASIEVQATQGNLNSSAQDYRALYDYTAQNSDELDISAGDILAVILEGEDGWWTVERNGQRGFVPGSYLEKLDYKDDDDK
# B3: L224: PST PIP with leucine 224 mutated to alanine (protein)
# chain: B2 chain with A122I, A123M, A124D, L224A
# B4: E110RQ: PST PIP clustered alanine substitution starting at E110 (protein)
# chain: B2 chain with E110A, R111A, Q112A, A122I, A123M, A124D
# B5: D38VE: PST PIP clustered alanine substitution starting at D38 (protein)
# chain: B2 chain with D38A, V39A, E40A, A122I, A123M, A124D
# B6: L133YK: PST PIP clustered alanine substitution starting at L133 (protein)
# chain: B2 chain with A122I, A123M, A124D, L133A, Y134A, K135A
# B7: E159RV: PST PIP clustered alanine substitution starting at E159 (protein)
# chain: B2 chain with A122I, A123M, A124D, E159A, R160A, V161A
# B8: R99EE: PST PIP clustered alanine substitution starting at R99 (protein)
# chain: B2 chain with R99A, E100A, E101A, A122I, A123M, A124D
# B9: E50ER: PST PIP clustered alanine substitution starting at E50 (protein)
# chain: B2 chain with E50A, E51A, R52A, A122I, A123M, A124D
# B10: Q169VE: PST PIP clustered alanine substitution starting at Q169 (protein)
# chain: B2 chain with A122I, A123M, A124D, Q169A, V170A, E171A
# B11: R62K: PST PIP clustered alanine substitution starting at R62 (protein)
# chain: B2 chain with R62A, K63A, A122I, A123M, A124D
# B12: F221: PST PIP with phenylalanine 221 mutated to alanine (protein)
# chain: B2 chain with A122I, A123M, A124D, F221A
# B13: N86VG: PST PIP clustered alanine substitution starting at N86 (protein)
# chain: B2 chain with N86A, V87A, G88A, A122I, A123M, A124D
# B14: D145QK: PST PIP clustered alanine substitution starting at D145 (protein)
# chain: B2 chain with A122I, A123M, A124D, D145A, Q146A, K147A
# Molecular target: T1, PTP HSCF
# Assay: In vitro GST pull-down binding of PST PIP forms to PTP HSCF
# Settings: in vitro
# Method: The binding was carried out according to the method of Wong and Johnson (Wong et al., J. Biol. Chem. 271(35):20981-20984 (1996)). Briefly, 1 μg of plasmid with either the PSTPIP protein or PTP HSCF under the control of the Sp6 promoter was in vitro transcribed/translated using the Promega™ TnT Rabbit Reticulocyte™ system. Samples were diluted in 50 mM HEPES, pH 7.2, 1% triton X 100, 10% glycerol, 100 mM NaCl, 5 mM EDTA and 2 μg/ml each of leupeptin, pepstatin, aprotinin, and PMSF. […] This was reacted for 1 hour at 4° C. and then the resin washed 6 times in HEPES/Triton binding buffer before SDS gel electrophoresis. The peptides were synthesized on an automated Milligen 9050 Peptide Synthesizer using standard solid phase chemistry with FMOC protected amino acids on a p-alkoxybenzyl alcohol resin. Dried peptides were re-suspended in the HEPES/Triton Binding buffer at a concentration of 10 mg/ml. Peptide inhibition was performed by adding the peptide first to the in vitro translation product and then the GST-fusion followed by the GSH-Sepharose. The binding/washing steps were as previously described. The peptides synthesized and the PTPs they were derived from were: • PXXP-HSCF: 432[…]451 (PTP HSCF) (SEQ ID NO:20), • PXXP-PEP: 782GFGNRFSKPKGPRNPPSAW800 (PTP PEP) (SEQ ID NO:21), • PXXP-PEST: 761[…]780 (PTP PEST) SEQ ID NO:22), • PXXP-CONTROL: 334[…]353 (PTP HSCF) (SEQ ID NO:23).
# In vitro binding analyses between various PTP HSCF and PST PIP constructs were performed as previously described (Spencer et al, (1997), supra). Briefly, plasmids were transcribed and translated in vitro using the TnT Rabbit Reticulocyte Lysate System (Promega). Samples were diluted in 50 mM HEPES, pH 7.2, 1% triton X-100, 10% glycerol, 100 mM NaCl, and 2 μg/ml each of leupeptin, pepstatin, aprotinin and PMSF (lysis buffer). Samples were than reacted with GST fusion proteins at various concentrations, and the bound proteins were centrifuged using glutathione-sepharose beads and analyzed on SDS polyacrylamide gels. C-terminally-derived peptide inhibition studies were performed by incubating the GST fusion protein binding reactions in the presence of 10 μg/ml of the indicated peptides. Peptides were produced by FMOC-protected amino acids as previously described (Spencer et al, (1997), supra). In vivo interactions between various forms of PTP HSCF and PST PIP were also performed as previously described (Spencer et al, (1997), supra). Briefly, COS cells were transfected with various constructs, and after 48 hours, lysates were prepared and immunoprecipitated with antibodies to either the FLAG epitope contained at the C-terminus of PST PIP or an HA epitope contained at the N-terminus of PTP HSCF. The resultant blots were probed with anti-FLAG to detect PST PIP, anti-HA to detect PTP HSCF or anti-phosphotyrosine to detect levels of this modified amino acid in each protein.
row,Molecule,binding of in vitro translated PST PIP forms to GST fusion of C-terminal 149 amino acids of PTP HSCF
1,amino acids 1-264 of the coiled coil domain: form of PST PIP containing amino acids 1-264,binding of PTP HSCF could be obtained
2,B1,no effect on PTP HSCF binding was observed
3,B2,either no or a minor change in the binding activity
4,B3,no effect on PTP HSCF binding was observed
5,B4,either no or a minor change in the binding activity
6,B5,either no or a minor change in the binding activity
7,B6,either no or a minor change in the binding activity
8,B7,either no or a minor change in the binding activity
9,B8,either no or a minor change in the binding activity
10,B9,either no or a minor change in the binding activity
11,B10,either no or a minor change in the binding activity
12,B11,either no or a minor change in the binding activity
13,B12,no effect on PTP HSCF binding was observed
14,B13,either no or a minor change in the binding activity
15,B14,either no or a minor change in the binding activity

# Same assay, conditions: ~1 microgram per ml GST fusion protein
row,Molecule,precipitation of in vitro translated PTP HSCF by GST fusions of PSTPIP or its domains
1,SH3 region: GST fusion containing the SH3 domain of PSTPIP,not the SH3 region
2,coiled coil domain: GST fusion containing the coiled coil domain of PSTPIP,mediated by the coiled coil domain
